Laboratory results from paper PMC4933879.

Legend:
[1] = target: T1, tubulin covalently linked to a biotinylated stathmin-like peptide; assay: ELISA; details: chain shown with the change, buffer incubation after binding, read off a plot
[2] = target: T1, tubulin covalently linked to a …; assay: ELISA (off-rate estimation); details: chain shown with the change, incubation with 100 nM soluble tubulin to prevent rebinding, read off a plot
[3] = 2 nM biotinylated peptide-coupled tubulin for coating, parent: est. 0.082
[4] = 10 nM biotinylated peptide-coupled tubulin for coating, parent: est. 0.32
[5] = 2 nM biotinylated peptide-coupled tubulin for coating, parent: est. 0.046
[6] = 10 nM biotinylated peptide-coupled tubulin for coating, parent: est. 0.11

Row | Binder | response [1, 3] | response [1, 4] | response [2, 5] | response [2, 6]
1 | DARPin D1 H118R (protein) MRGSHHHHHHGSDLGKKLLEAARAGQDDEVRILMANGADVNATDASGLTPLHLAATYGHLEIVEVLLKHGADVNAIDIMGSTPLHLAALIGHLEIVEVLLKHGADVNAVDTWGDTPLRLAAIMGHLEIVEVLLKHGADVNAQDKFGKTAFDISIDNGNEDLAEILQKLN | 0.71 AU | 0.76 AU | 0.45 AU | 0.76 AU
2 | DARPin D1 I152T (protein) MRGSHHHHHHGSDLGKKLLEAARAGQDDEVRILMANGADVNATDASGLTPLHLAATYGHLEIVEVLLKHGADVNAIDIMGSTPLHLAALIGHLEIVEVLLKHGADVNAVDTWGDTPLHLAAIMGHLEIVEVLLKHGADVNAQDKFGKTAFDTSIDNGNEDLAEILQKLN | 0.48 AU | 0.79 AU | 0.075 AU | 0.44 AU
3 | DARPin D1 F150Y (protein) MRGSHHHHHHGSDLGKKLLEAARAGQDDEVRILMANGADVNATDASGLTPLHLAATYGHLEIVEVLLKHGADVNAIDIMGSTPLHLAALIGHLEIVEVLLKHGADVNAVDTWGDTPLHLAAIMGHLEIVEVLLKHGADVNAQDKFGKTAYDISIDNGNEDLAEILQKLN | – | 0.26 AU | – | 0.13 AU
4 | DARPin D1 V131A (protein) MRGSHHHHHHGSDLGKKLLEAARAGQDDEVRILMANGADVNATDASGLTPLHLAATYGHLEIVEVLLKHGADVNAIDIMGSTPLHLAALIGHLEIVEVLLKHGADVNAVDTWGDTPLHLAAIMGHLEIVEALLKHGADVNAQDKFGKTAFDISIDNGNEDLAEILQKLN | – | 0.24 AU | – | 0.1 AU
5 | DARPin D1 I32V; N74S; I76S; I78L; H118R; I122V; E127K; V131A; F150Y; I152T; N158S (protein) MRGSHHHHHHGSDLGKKLLEAARAGQDDEVRVLMANGADVNATDASGLTPLHLAATYGHLEIVEVLLKHGADVSASDLMGSTPLHLAALIGHLEIVEVLLKHGADVNAVDTWGDTPLRLAAVMGHLKIVEALLKHGADVNAQDKFGKTAYDTSIDNGSEDLAEILQKLN | 0.72 AU | 0.74 AU | 0.38 AU | 0.74 AU
6 | DARPin D1 H118R; I152T; N158S (protein) MRGSHHHHHHGSDLGKKLLEAARAGQDDEVRILMANGADVNATDASGLTPLHLAATYGHLEIVEVLLKHGADVNAIDIMGSTPLHLAALIGHLEIVEVLLKHGADVNAVDTWGDTPLRLAAIMGHLEIVEVLLKHGADVNAQDKFGKTAFDTSIDNGSEDLAEILQKLN | 0.75 AU | – | 0.57 AU | –
7 | DARPin D1 E127K (protein) MRGSHHHHHHGSDLGKKLLEAARAGQDDEVRILMANGADVNATDASGLTPLHLAATYGHLEIVEVLLKHGADVNAIDIMGSTPLHLAALIGHLEIVEVLLKHGADVNAVDTWGDTPLHLAAIMGHLKIVEVLLKHGADVNAQDKFGKTAFDISIDNGNEDLAEILQKLN | – | 0.42 AU | – | 0.11 AU
8 | DARPin D1 H118R; I122V (protein) MRGSHHHHHHGSDLGKKLLEAARAGQDDEVRILMANGADVNATDASGLTPLHLAATYGHLEIVEVLLKHGADVNAIDIMGSTPLHLAALIGHLEIVEVLLKHGADVNAVDTWGDTPLRLAAVMGHLEIVEVLLKHGADVNAQDKFGKTAFDISIDNGNEDLAEILQKLN | – | 0.73 AU | – | 0.69 AU
9 | DARPin D1 I122V (protein) MRGSHHHHHHGSDLGKKLLEAARAGQDDEVRILMANGADVNATDASGLTPLHLAATYGHLEIVEVLLKHGADVNAIDIMGSTPLHLAALIGHLEIVEVLLKHGADVNAVDTWGDTPLHLAAVMGHLEIVEVLLKHGADVNAQDKFGKTAFDISIDNGNEDLAEILQKLN | – | 0.22 AU | – | 0.12 AU
10 | DARPin D1 N74S (protein) MRGSHHHHHHGSDLGKKLLEAARAGQDDEVRILMANGADVNATDASGLTPLHLAATYGHLEIVEVLLKHGADVSAIDIMGSTPLHLAALIGHLEIVEVLLKHGADVNAVDTWGDTPLHLAAIMGHLEIVEVLLKHGADVNAQDKFGKTAFDISIDNGNEDLAEILQKLN | – | 0.28 AU | – | 0.18 AU
11 | DARPin D1 F150Y; I152T; N158S (protein) MRGSHHHHHHGSDLGKKLLEAARAGQDDEVRILMANGADVNATDASGLTPLHLAATYGHLEIVEVLLKHGADVNAIDIMGSTPLHLAALIGHLEIVEVLLKHGADVNAVDTWGDTPLHLAAIMGHLEIVEVLLKHGADVNAQDKFGKTAYDTSIDNGSEDLAEILQKLN | – | 0.75 AU | – | 0.69 AU
12 | DARPin D1 E127K; V131A (protein) MRGSHHHHHHGSDLGKKLLEAARAGQDDEVRILMANGADVNATDASGLTPLHLAATYGHLEIVEVLLKHGADVNAIDIMGSTPLHLAALIGHLEIVEVLLKHGADVNAVDTWGDTPLHLAAIMGHLKIVEALLKHGADVNAQDKFGKTAFDISIDNGNEDLAEILQKLN | – | 0.31 AU | – | 0.075 AU
13 | DARPin D1 I152T; N158S (protein) MRGSHHHHHHGSDLGKKLLEAARAGQDDEVRILMANGADVNATDASGLTPLHLAATYGHLEIVEVLLKHGADVNAIDIMGSTPLHLAALIGHLEIVEVLLKHGADVNAVDTWGDTPLHLAAIMGHLEIVEVLLKHGADVNAQDKFGKTAFDTSIDNGSEDLAEILQKLN | 0.61 AU | – | 0.27 AU | –
14 | DARPin D1 N158S (protein) MRGSHHHHHHGSDLGKKLLEAARAGQDDEVRILMANGADVNATDASGLTPLHLAATYGHLEIVEVLLKHGADVNAIDIMGSTPLHLAALIGHLEIVEVLLKHGADVNAVDTWGDTPLHLAAIMGHLEIVEVLLKHGADVNAQDKFGKTAFDISIDNGSEDLAEILQKLN | 0.15 AU | 0.59 AU | 0.045 AU | 0.14 AU
15 | DARPin D1 I78L (protein) MRGSHHHHHHGSDLGKKLLEAARAGQDDEVRILMANGADVNATDASGLTPLHLAATYGHLEIVEVLLKHGADVNAIDLMGSTPLHLAALIGHLEIVEVLLKHGADVNAVDTWGDTPLHLAAIMGHLEIVEVLLKHGADVNAQDKFGKTAFDISIDNGNEDLAEILQKLN | – | 0.4 AU | – | 0.13 AU
16 | DARPin D1 I76S (protein) MRGSHHHHHHGSDLGKKLLEAARAGQDDEVRILMANGADVNATDASGLTPLHLAATYGHLEIVEVLLKHGADVNASDIMGSTPLHLAALIGHLEIVEVLLKHGADVNAVDTWGDTPLHLAAIMGHLEIVEVLLKHGADVNAQDKFGKTAFDISIDNGNEDLAEILQKLN | – | 0.3 AU | – | 0.15 AU
17 | DARPin D1 N74S; I76S; I78L (protein) MRGSHHHHHHGSDLGKKLLEAARAGQDDEVRILMANGADVNATDASGLTPLHLAATYGHLEIVEVLLKHGADVSASDLMGSTPLHLAALIGHLEIVEVLLKHGADVNAVDTWGDTPLHLAAIMGHLEIVEVLLKHGADVNAQDKFGKTAFDISIDNGNEDLAEILQKLN | – | 0.34 AU | – | 0.18 AU
18 | DARPin D1 I32V (protein) MRGSHHHHHHGSDLGKKLLEAARAGQDDEVRVLMANGADVNATDASGLTPLHLAATYGHLEIVEVLLKHGADVNAIDIMGSTPLHLAALIGHLEIVEVLLKHGADVNAVDTWGDTPLHLAAIMGHLEIVEVLLKHGADVNAQDKFGKTAFDISIDNGNEDLAEILQKLN | – | 0.31 AU | – | 0.11 AU
